Experimental data from US20240325555A1 (LANOVA MEDICINES, published 2024).
Residue numbers refer to the chain shown, from its start. Where two headings read alike, the source gives them in different places.

T1: human LIV-1 (human, UniProt Q13433 29-755)
T1 construct: whole, on cells; also called H-LIV1
T1 sequence (looked up): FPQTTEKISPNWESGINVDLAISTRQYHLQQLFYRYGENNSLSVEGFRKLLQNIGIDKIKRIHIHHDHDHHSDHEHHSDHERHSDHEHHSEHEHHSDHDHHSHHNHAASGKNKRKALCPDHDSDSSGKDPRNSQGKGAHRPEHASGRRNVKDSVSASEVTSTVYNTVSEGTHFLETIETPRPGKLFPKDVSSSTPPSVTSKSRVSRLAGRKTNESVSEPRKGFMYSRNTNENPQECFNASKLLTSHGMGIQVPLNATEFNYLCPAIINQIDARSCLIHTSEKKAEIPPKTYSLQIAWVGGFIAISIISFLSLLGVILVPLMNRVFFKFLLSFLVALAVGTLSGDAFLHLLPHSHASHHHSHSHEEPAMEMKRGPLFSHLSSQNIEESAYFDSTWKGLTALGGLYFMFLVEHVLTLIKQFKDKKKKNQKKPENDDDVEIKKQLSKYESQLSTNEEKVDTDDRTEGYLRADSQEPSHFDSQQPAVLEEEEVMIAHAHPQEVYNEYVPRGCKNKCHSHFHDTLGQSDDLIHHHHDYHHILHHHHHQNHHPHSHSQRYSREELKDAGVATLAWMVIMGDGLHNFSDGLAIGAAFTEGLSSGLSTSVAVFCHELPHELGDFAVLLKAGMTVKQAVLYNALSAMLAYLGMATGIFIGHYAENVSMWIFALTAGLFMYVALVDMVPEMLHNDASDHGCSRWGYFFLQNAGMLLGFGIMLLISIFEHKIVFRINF

B1: 5D6B10.Z6 (antibody, V domains shown)
VH: QVQLVESGGGVVQPGRSLRLSCTVSGFSLTTYGIHWVRQSPGKGLEWLGVIWTGGTTDYNAAFISRLTISKDNSKSTLYFQMNSLRAEDTAVYYCARGPSSYWGQGTLVTVSS
VL: DIVMTQSPATLSVSPGERVTVSCKASQNVDTNVVWYQQKPGQSPRALIHSASYRYSGVPDRFSGSGSGTDFTLTISSVQSEDFAVYFCQQYNNYPWTFGGGTKLEIK
B2: 5D6B10.Z10 (antibody, V domains shown)
VH: QVQLQESGPGLVKPSGTLSLTCAVSGFSLTTYGIHWVRQSPGKGLEWLGVIWTGGTTDYNAAFISRLTISKDKSKNQVSLKLSSVTAADTAVYYCARGPSSYWGQGTLVTVSS
VL: B1 VL with D1E, V19A, V21L, H49Y, D60A, D70E, V78L, G100Q, L104V
B3: 5D6B10.Z11 (antibody, V domains shown)
VH: B2 VH
VL: B1 VL with D1E, V19A, V78L, G100Q, L104V
B4: 5D6B10.Z12 (antibody, V domains shown)
VH: B2 VH
VL: B1 VL
B5: 5D6B10.Z9 (antibody, V domains shown)
VH: B1 VH with E6Q, L78V, R86Q, V92I
VL: B1 VL
B6: 5D6B10.Z13 (antibody, V domains shown)
VH: B2 VH with E6Q, A23T, S79F, L80F, L82M, V85L
VL: B1 VL with D1E, V19A, V21L, H49Y, D60A, D70E, V78L, G100Q, L104V
B7: 5D6B10.Z8 (antibody, V domains shown)
VH: B1 VH with E6Q, L78V, R86Q, V92I
VL: B1 VL with D1E, V19A, V78L, G100Q, L104V
B8: 50H12B3 (antibody, V domains shown)
VH: QVQLKQSGPGLVQPSQSLSITCTVSGFSLTSYGVHWVRQSPGKGLEWLGVIWTGGTTDYNAAFKSRLSISKDNSKSQVFFKMNSLQANDTAIYYCARGPSSYWGQGTLVTVSA
VL: DIVMTQSQKFMSTSVGDRVSVTCKASQNVDTNVVWYQQKPGQSPKALIHSTSYRYSGVPDRFTGSGSGTDFTLTISNVQSEDLAEYFCQQYNNYPWTFGGGTKLEIK
notes: Tested as chimeric antibody
B9: 56B3E6 (antibody, V domains shown)
VH: EVQLQQSGAELVRSGASVKLSCTASGFNIKDYYIHWVKQRPEQGLEWIGWIDPENDDTEYAPKFQGKATMTADTSSNTAYLHLSSLTSEDTAVYYCPHGGGFRVFDSWGQGTTLTVSS
VL: DVLMTQTPLSLPVSLGDQASISCRSSQDIVHSNGNTYLEWYLQKPGQSPKLLIYKVSNRFSGVPDRFSGSGSGTDFTLKISRVEAEDLGVYYCFQGSHVPWTFGGGTKLEIK
notes: Tested as chimeric antibody
B10: 69B3D6 (antibody, V domains shown)
VH: QVQLQQSGPELVKPGASVRISCKASGYTFTSYHMHWVKQRPGQGLEWIGWIYPGNVKNQSNEKFKGKATLTADKSSSTAYMQLSSLTSEDSAVYFCARSDITRAFFAYWGQGTLVTVSA
VL: B9 VL with D28S, W101Y
notes: Tested as chimeric antibody
B11: 72B12F1 (antibody, V domains shown)
VH: EVQLQQSGAELVKPGASVKLSCTASGFNIKDTYMHWVKQRPEQGLEWIGRIDPANGNTKNDPRFQGKATITADTSSNTAYLQLSRLTSEDTAVYYCAGGGITTVVPDHWGQGTTLTVSS
VL: B9 VL with L3V, D28S, I29L, E39Q, Y92F, F94S, G96S, S97T, W101Y
notes: Tested as chimeric antibody
B12: 124H4D11.p2.z2 (antibody, V domains shown)
VH: QVQLVQSGAEVVKPGASVKVSCKASGFNIKDYYMHWVRQAPGQGLEWIGWIDPENDDTEYDPKFQGRVTMTADTSTSTVYMELSSLRSEDTAVYYCAARYYAFDYWGQGTMVTVSS
VL: DVLMTQSPSSLSASVGDRVTITCRSSQSIVHSNANTYLEWYLQKPGKSPKLLIYKVSNRFSGVPDRFSGSGSGTEFTLTISSVQPEDFAVYYCFQGSQVPPTFGQGTRLEIK
B13: 124H4D11.p2.z13 (antibody, V domains shown)
VH: B12 VH with Q3P, V20L, R38K, V68A, V79A, M81L, A97N, M111T
VL: B12 VL with A13V, V19A, T22S, A89G, Q105G
B14: 124H4D11.p2.z7 (antibody, V domains shown)
VH: B12 VH with Q3P, V68A, V79A, A97N, M111T
VL: B12 VL
B15: 124H4D11.p2.z3 (antibody, V domains shown)
VH: B12 VH
VL: B12 VL with A13V, V19A, T22S, A89G, Q105G
B16: 124H4D11.p2.z1 (antibody, V domains shown)
VH: B12 VH
VL: B12 VL with L3Q, E75D, V83L, V90T
B17: 124H4D11.p2.z12 (antibody, V domains shown)
VH: B12 VH with Q3P, V20L, R38K, V68A, V79A, M81L, A97N, M111T
VL: B12 VL

Tests used:
human LIV-1 [1] = molecular target: T1, human LIV-1; assay: FACS, HEK293/H_LIV-1 cells
Protocol: In this example, cell based binding of humanized antibodies (hu Abs) on human LIV-1-expressing cells were assessed using flow cytometry.
Cell based binding of hu-Abs on human LIV-1 expressing cells were assessed using flow cytometry. Briefly, the HEK293/H_LIV-1 cells were incubated with hu-Abs (from 100 nM, 6 folds dilution, 8 points). After incubation at 4° C. for 60 minutes, the cells were washed with FACS buffer twice, then stained with fluorescent conjugated secondary antibody at 4° C. for 30 minutes. After that the cells were washed twice and analyzed by flow cytometry.

cynomolgus LIV-1 [2] = molecular target: T2, cynomolgus LIV-1 (cynomolgus, UniProt A0A2K5WH46 30-741); assay: FACS, HEK293/Cyno_LIV-1 cells
human LIV-1 [3] = molecular target: T1, human LIV-1; assay: cell-based or functional assay
human LIV-1 [4] = molecular target: T1, human LIV-1; assay: FACS, HEK293/H_LIV-1 cells; remark: listed apart in the source
Protocol: (§1) In this example, cell based binding of chimeric Abs on human and cyno LIV-1 over-expressing HEK 293 cells were assessed using flow cytometry.
(§2) Briefly, cells were incubated with chimeric Abs (from 100 nM, 5 folds dilution, 8 points). After incubation at 4° C. for 60 minutes, the cells were washed with 2% FBS/PBS buffer twice, then stained with fluorescent conjugated secondary antibody at 4° C. for 30 minutes. After that the cells were washed twice and resuspended in 80 μL of 2% FBS/PBS buffer. Fluorescent signal of binding was detected using Agilent. The EC50 was calculated using the GraphPad Software (LaJolla, CA).

cynomolgus LIV-1 [5] = molecular target: T2, cynomolgus LIV-1; assay: FACS, HEK293/Cyno_LIV-1 cells; remark: listed apart in the source
Protocol: as §1, §2

human LIV-1 [6] = molecular target: T1, human LIV-1; assay: cell-based or functional assay; remark: listed apart in the source

Row | Binder | EC50 (human LIV-1 [1]) | Top (MFI) (human LIV-1 [1]) | EC50 (cynomolgus LIV-1 [2]) | Top (MFI) (cynomolgus LIV-1 [2]) | ADCC reporter EC50 (human LIV-1 [3]) | ADCC reporter Top (RFU) (human LIV-1 [3]) | EC50 (human LIV-1 [4]) | Top (MFI) (human LIV-1 [4]) | EC50 (cynomolgus LIV-1 [5]) | Top (MFI) (cynomolgus LIV-1 [5]) | Internalization EC50 (human LIV-1 [6]) | Internalization Top (RFU) (human LIV-1 [6])
1 | B1 | 0.24 nM | 52700 MFI | 0.16 nM | 16700 MFI |  |  |  |  |  |  |  | 
2 | B2 | 0.42 nM | 63800 MFI | 0.47 nM | 25800 MFI |  |  |  |  |  |  |  | 
3 | B3 | 0.29 nM | 55300 MFI | 11.6 nM | 18300 MFI |  |  |  |  |  |  |  | 
4 | B4 | 0.3 nM | 60300 MFI | 0.46 nM | 24900 MFI |  |  |  |  |  |  |  | 
5 | B5 | 0.24 nM | 52600 MFI | 0.23 nM | 16500 MFI |  |  |  |  |  |  |  | 
6 | B6 | 0.33 nM | 64300 MFI | 0.5 nM | 26300 MFI |  |  |  |  |  |  |  | 
7 | B7 | 0.19 nM | 45700 MFI | 4 nM | 12100 MFI |  |  |  |  |  |  |  | 
8 | B8 |  |  |  |  | 0.2 nM | 95600 RFU | 0.23 nM | 63000 MFI | 0.21 nM | 35900 MFI |  | 
9 | B9 |  |  |  |  | 1.3 nM | 52300 RFU | 0.13 nM | 13300 MFI | 0.21 nM | 9280 MFI | 5 nM | 388000 RFU
10 | B10 |  |  |  |  | 25.3 nM | 47200 RFU | 0.18 nM | 11500 MFI | 0.17 nM | 6600 MFI |  | 
11 | B11 |  |  |  |  |  |  | 0.79 nM | 10700 MFI | 0.36 nM | 7470 MFI | 7.2 nM | 353000 RFU
12 | B12 |  | 19400 MFI | 0.2 nM | 8390 MFI |  |  |  |  |  |  |  | 
13 | B13 | 7.48 nM | 17000 MFI |  | 9030 MFI |  |  |  |  |  |  |  | 
14 | B14 | 37.2 nM | 15800 MFI | 1.48 nM | 7750 MFI |  |  |  |  |  |  |  | 
15 | B15 | 0.12 nM | 19400 MFI | 0.04 nM | 8300 MFI |  |  |  |  |  |  |  | 
16 | B16 | 0.89 nM | 16800 MFI | 0.29 nM | 8200 MFI |  |  |  |  |  |  |  | 
17 | B17 |  | 15800 MFI | 3.8 nM | 7570 MFI |  |  |  |  |  |  |  | 
